B1: PRT-630 (protein)
chain: MQITSVWTKGVTPLTPEQFRYNNEDVIHAPYLAHQGWYDITKAFDGKDNLLCGAATAGNMLHWWFDQNKEEIENYLKKYPEKQKIIFNNQELFDLKAAIDTKDSQTNSQLFNYFRDKAFPNLSARQLGVMPDLVLDMFINGYYLNVFKTQSTDVNRPYQDKDKRGGIFDAVFTRGDQTTLLTARHDLKNKGLNDISTIIKQELTEGRALALSHTYANVSISHVINLWGADFNAEGNLEAIYVTDSDANASIGMKKYFVGINAHGHVAISAKKIEGENIGAQVLGLFTLSSGQEIWEQLSLEHHHHHH
B2: PRT-608 (protein)
chain: MQITSVWTKGVTPLTPEQFRYNNEDVIHAPYLAHQGWYDITKAFDGKDNLLCGAATAGNMLHWWFDQNKTEIEAYLSKHPEKQKIIFNNQELFDLKAAIDTKDSQTNSQLFNYFRDKAFPNLSARQLGVMPDLVLDMFINGYYLNVFKTQSTDVNRPYQDKDKRGGIFDAVFTRGDQTTLLTARHDLKNKGLNDISTIIKQELTEGRALALSHTYANVSISHVINLWGADFNAEGNLEAIYVTDSDADEKIGMKKYFVGINAHGHVAISAKKIEGENIGAQVLGLFTLSSGKDIWQKLSLEHHHHHH
B3: PRT-71 (protein)
chain: MANQEIRYSEVTPYHVTSVWTKGVTPPANFTQGEDVFHAPYVANQGWYDITKTFNGKDDLLCGAATAGNMLHWWFDQNKEEIEAYLKKHPEKQKIMFGDQELLDVRKVINTKGSQTNSELFNYFRDKAFPGLSARRLGVMPDLVLDMFINGYYLNVYKTQTTDVNRTYQEKDKRGGIFDAVFTRGDQSKLLTSRHDFKEKNLKEISDLIKKELTEGKALGLSHTYANVRINHVINLWGADFDSNGNLKAIYVTDSDSNASIGMKKYFVGVNSAGKVAISAKEIKEDNIGAQVLGLFTLSTGQDIWNQTN
B4: PRT-75 (protein)
chain: MANQEIRYSEVTPYHVTSVWTKGVTPPAKFTQGEDVFHAPYVANQGWYDITKTFNGKDDLLCGAATAGNMLHWWFDQNKEKIEAYLKKHPEKQKIMFGDQELLDVRKVINTKDDQTNSELFNYFRDKAFPGLSARRLGVMPDLVLDMFINGYRLNVTKTQTTDVNETYQTKDKRGGIFDAVFTRGDQSKLLTSRHDFKEKNLKEISDLIKKELTEGKALGLSHTYANVRINHVINLWGADFDSNGNLKAIYVTDSDSNASIGMKKYFVGVNSAGKVAISAKEIKDDNIGAQVLGLFTLSTGQDIWNQTN
B5: PRT-73 (protein)
chain: MANQEIRYSEVTPYHVTSVWTKGVTPPANFTQGEDVFHAPYVANQGWYDITKTFNGKDDLLCGAATAGNMLHWWFDQNKEKIEAYLKKHPEKQKIMFGDQELLDVRKVINTKDDQTNSELFNYFRDKAFPGLSARRLGVMPDLVLDMFINGYYLNVTKTQTTDVNRTYQEKDRRGGIFDAVFTRGDQSKLLTSRHDFKEKNLKEISDLIKKELTEGKALGLSHTYANVRINHVINLWGADFDSNGNLKAIYVTDSDSNASIGMKKYFVGVNSAGKVAISAKEIKEDNIGAQVLGLFTLSTGQDSWNQTN
B6: PRT-74 (protein)
chain: MANQEIRYSEVTPSHVTSVWTKGVTPPANFTQGEDVFHAPYVANQGWYDITKTFNGKDNLLCGAATAGNMLHWWFDQNKEEIEAYLKKHPEKQKIMFGDQELLDVRKVINTKDSQTNSELFNYFRDKAFPGLSARRLGVMPDLVLDMFINGYYLNVYKTQTTDVNRTYQEKDRRGGIFDAVFTRGDQSKLLTSRHDFKEKTLKEISDLIKKELTEGKALGLSHTYANVRINHVINLWGADFDSNGNLKAIYVTDSDSNASIGMKKYFVGVNSAGKVAISAKEIKEDNIGAQVLGLFTLSTGQDIWNQTN
B7: PRT-72 (protein)
chain: MANQEIRYSEVTPYHVTSVWTKGVTPPAKFTQGEDVFHAPYVANQGWYDITKTFNGKDDLLCGAATAGNMLHWWFDQNKEYIEAYLKKHPEKQKIMFGDQELLDVRKVINTKGDQTNSELFNYFRDKAFPYLSARRLGVMPDLVLDMFINGYYLNVTKTQTTDVNRTYQEKDRRGGIFDAVFTRGDQSKLLTSRHDFKEKNLKEISDLIKKELTEGKALGLSHTYANVRINHVINLWGADFDSNGNLKAIYVTDSDSNASIGMKKYFVGVNSAGKVAISAKEIKEDNIGAQVLGLFTLSTGQDIWNQTN
B8: PRT-67 (protein)
chain: MANQEIRYSEVTPYHVTSVWTKGVTPPANFTQGEDVFHAPYVANQGWYDINKTFNGKDDLLCGAATAGNMLHWWFDQNKDQIKRYLEEHPEKQKINFNGEQMFDVKEAIDTKNHQLDSKLFEYFKEKAFPYLSTKHLGVFPDHVIDMFINGYRLSLTNHGPTPVKEGSKDPRGGIFDAVFTRGDQSKLLTSRHDFKEKNLKEISDLIKKELTEGKALGLSHTYANVRINHVINLWGADFDSNGNLKAIYVTDSDSNASIGMKKYFVGVNSAGKVAISAKEIKEDNIGAQVLGLFTLSTGQDSWNQTN
B9: PRT-5 (protein)
chain: MANQEIRYSEVTPYHVTSVWTKGVTPPANFTQGEDVFHAPYVANQGWYDITKTFNGKDDLLCGAATAGNMLHWWFDQNKDQIERYLKKHPEKQKINFNGEQMFDVKEAIDTKNSQLDSKLFEYFKEKAFPYLSTKHLGVFPDHVIDMFINGYRLSLTNHGPTPVKEGSKDPRGGIFDAVFTRGDQSKLLTSRHDFKEKNLKEISDLIKKELTEGKALGLSHTYANVRINHVINLWGADFDSNGNLEAIYVTDSDSNASIGMKKYFVGVNSAGKVAISAKEIKEDNIGAQVLGLFTLSTGQDIWNQTN
B10: PRT-69 (protein)
chain: MANQEIRYSEVTPYHVTSVWTKGVTPPANFTQGEDVFHAPYVANQGWYDITKTFNGKDDLLCGAATAGNMLHWWFDQNKDQIKRYLEEHPEKQKINFNGEQMFDVKEAIDTKNDQLDSKLFEYFKEKAFPYLSTKHLGVFPDHVIDMFINGYRLSLTNHGPTPVKEGSKDPRGGIFDAVFTRGDQSKLLTSRHDFKEKNLKEISDLIKKELTEGKALGLSHTYANVRINHVINLWGADFDSNGNLKAIYVTDSDSNASIGMKKYFVGVNSAGKVAISAKEIKEDNIGAQVLGLFTLSTGQDSWNQTN
B11: PRT-68 (protein)
chain: MANQEIRYSEVTPYHVTSVWTKGVTPPANFTQGEDVFHAPYVANQGWYDITKTFNGKDDLLCGAATAGNMLHWWFDQNKDQIKRYLEEHPEKQKINFNGEQMFDVKEAIDTKNHQLDSKLFEYFKEKAFPYLSTKHLGVFPDHVIDMFINGYRLSLTNHGPTPVKEGSKDPRGGIFDDVFTRGDQSKLLTSRHDFKEKNLKEISDLIKKELTEGKALGLSHTYANVRINHVINLWGADFDSNGNLKAIYVTDSDSNASIGMKKYFVGVNSAGKVAISAKEIKEDNIGAQVLGLFTLSTGQDSWNQTN
B12: PRT-70 (protein)
chain: MANQEIRYSEVTPYHVTSVWTKGVTPPANFTQGEDVFHAPYVANQGWYDITKTFNGKDDLLCGAATAGNMLHWWFDQNKEQIKRYLEEHPEKQKINFNGEQMFDVKEAIDTKNHQLDSKLFEYFKEKAFPYLSTKHLGVFPDHVIDMFINGYRLSLTNHGPTPVKEGSKDPRGGIFDAVFTRGDQSKLLTSRHDFKEKNLKEISDLIKKELTEGKALGLSHTYANVRINHVINLWGADFDSNGNLKAIYVTDSDSNASIGMKKYFVGVNSAGKVAISAKEIKEDNIGAQVLGLFTLSTGQDSWNQTN
B13: PRT-76 (protein)
chain: MANQEIRYSEVTPYHITSVWTKGVTPPAKFTQGEDVFHAPYVANQGWYDITKTFNGKDDLLCGAATAGNMLHWWFDQNKEEIEAYLKKHPEKQKIMFGDQELLDVRKVINTKDSQTNSALFNYFKDKAFPNLSARRLGVMPDLVLDMFINGYYLNVYKTQTTDVNRTYQTKDRRGGIFDAVFTRGDQSKLLTERHDFKEKTLKEISDLIKQELTEGKALGLSHTYANVRINHVINLWGADFDSNGNLEAIYVTDSDSNASIGMKKYFVGVNSAGKVAISAKEIKEDNIGAQVLGLFTLSTGQDIWNQTN

We go through 13 proteins from US20250027068.

The series deals with pooled human IgG.
In turn, B1 gave an Enzyme Activity Endpoint Assay (purified): Fab′2 of 850 ng/µL, an Enzyme Activity Endpoint Assay (purified): Fc of 464 ng/µL, an Enzyme Activity Endpoint Assay (purified): IgG of 0 ng/µL and an Enzyme Activity Endpoint Assay (purified): scIgG of 0 ng/µL.
Protein B2 gave an Enzyme Activity Endpoint Assay (purified): Fab′2 of 863 ng/µL, an Enzyme Activity Endpoint Assay (purified): Fc of 484 ng/µL, an Enzyme Activity Endpoint Assay (purified): IgG of 0 ng/µL and an Enzyme Activity Endpoint Assay (purified): scIgG of 0 ng/µL.
In the case of B3, the Enzyme Activity Endpoint Assay (purified): Fab′2 came out at 53 ng/µL, the Enzyme Activity Endpoint Assay (purified): Fc stood at 126 ng/µL, the Enzyme Activity Endpoint Assay (purified): IgG came out at 25 ng/µL and the Enzyme Activity Endpoint Assay (purified): scIgG is 0 ng/µL.
The protein B4 registered an Enzyme Activity Endpoint Assay (purified): Fab′2 of 12 ng/µL, an Enzyme Activity Endpoint Assay (purified): Fc of 76 ng/µL, an Enzyme Activity Endpoint Assay (purified): IgG of 8 ng/µL and an Enzyme Activity Endpoint Assay (purified): scIgG of 54 ng/µL.
Taken in the same sequence, the figures for B5 were 52 ng/µL, 105 ng/µL, 28 ng/µL and 5 ng/µL.
The corresponding values for B6 are 26 ng/µL, 73 ng/µL, 23 ng/µL and 27 ng/µL.
B7 yielded an Enzyme Activity Endpoint Assay (purified): Fab′2 of 41 ng/µL, an Enzyme Activity Endpoint Assay (purified): Fc of 100 ng/µL, an Enzyme Activity Endpoint Assay (purified): IgG of 14 ng/µL and an Enzyme Activity Endpoint Assay (purified): scIgG of 8 ng/µL.
The corresponding values for B8 are 10 ng/µL, 78 ng/µL, 23 ng/µL and 61 ng/µL.
B9 had an Enzyme Activity Endpoint Assay: Fab′2 of 34 ng/µL, an Enzyme Activity Endpoint Assay: Fc of 117 ng/µL, an Enzyme Activity Endpoint Assay: IgG of 18 ng/µL and an Enzyme Activity Endpoint Assay: scIgG of 34 ng/µL.
Turning to B10, the Enzyme Activity Endpoint Assay (purified): Fab′2 is 45 ng/µL, the Enzyme Activity Endpoint Assay (purified): Fc was found to be 121 ng/µL, the Enzyme Activity Endpoint Assay (purified): IgG was found to be 14 ng/µL and the Enzyme Activity Endpoint Assay (purified): scIgG was 14 ng/µL.
In turn, B11 yielded an Enzyme Activity Endpoint Assay (purified): Fab′2 of 51 ng/µL, an Enzyme Activity Endpoint Assay (purified): Fc of 133 ng/µL, an Enzyme Activity Endpoint Assay (purified): IgG of 16 ng/µL and an Enzyme Activity Endpoint Assay (purified): scIgG of 16 ng/µL.
B12 showed an Enzyme Activity Endpoint Assay (purified): Fab′2 of 47 ng/µL, an Enzyme Activity Endpoint Assay (purified): Fc of 124 ng/µL, an Enzyme Activity Endpoint Assay (purified): IgG of 14 ng/µL and an Enzyme Activity Endpoint Assay (purified): scIgG of 14 ng/µL.
On to B13, for which the Enzyme Activity Endpoint Assay (purified): Fab′2 turned out to be 20 ng/µL, the Enzyme Activity Endpoint Assay (purified): Fc came to 78 ng/µL, the Enzyme Activity Endpoint Assay (purified): IgG amounted to 37 ng/µL and the Enzyme Activity Endpoint Assay (purified): scIgG amounted to 38 ng/µL.
